Here are results for 18 sequences from the supplement of paper PMC12764529.

Series [1] in a line: folding stability dG unfold from trypsin proteolysis; higher = more stable. The essentials: (§1)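 K50 was inferred by Bayesian fitting of sequencing counts obtained after protease digestion of designed mini-proteins. Unfolding free energy was derived by comparison with a sequence-predicted unfolded-state K50 and a shared folded-state K50, for each protease or both combined. The mini-proteins were under 80 residues, had no cysteine, were carried in a PA-tagged cDNA display construct, and were kept only if AlphaFold2 dimer inter-PAE exceeded 15.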

The nature of series [2]: folding stability dG unfold (combined trypsin and chymotrypsin); higher = more stable. The essentials:
as §1

Series [3] is described as follows: folding stability dG unfold from chymotrypsin proteolysis; higher = more stable. The procedure, abridged: as §1

± gives the half width of the 95% confidence interval.

Turning to “SAGGSAGGSAGIVIKAKSPDEAVEALKKLFEKTGKADINIKPVKVLPDGNVLVEAGIDNKSAGGSAGGSAGG [r17_430_TrMRF]”, the “folding stability dG unfold” value is -0.403 ± 0.054 kcal/mol in series [1], -0.689 ± 0.34 kcal/mol in series [2] and -1.43 ± 0.61 kcal/mol in series [3].
The corresponding values for “SAGGSAGGSAGIVIPLDGRPIVIDMYPNGYMRIEVEPPNGKKKTRTFPGAPIEDILKAIKSAGGSAGGSAGG [r11_934_TrROS]” are -0.695 ± 0.71 kcal/mol, -0.204 ± 0.28 kcal/mol and -0.0199 ± 0.12 kcal/mol.
For “SAGGSAGGSAGKAESGDNAITLTLPGGHKVTIPNLPPNEPVWVKLNNRWVKIGDLKVNPKSAGGSAGGSAGG [r11_16_TrMRF]” the same measures were -0.131 ± 0.16 kcal/mol, 0.196 ± 0.18 kcal/mol and 0.227 ± 0.25 kcal/mol.
Regarding “SAGGSAGGSAGKDKGQKEVPEINIRIEPVNFHWEYDKGNGKPKSIHFMFKIRYPNGREITSAGGSAGGSAGG [r11_890_TrROS]”, the “folding stability dG unfold” value in series [1] was determined as 1.24 ± 0.1 kcal/mol; in series [2], 1.15 ± 0.28 kcal/mol; in series [3], 0.674 ± 0.29 kcal/mol.
With “SAGGSAGGSAGKEIIKNIPKGVKVLKIEPLPGKSGTYVKIEVEFPDPNGVKHRLTFIAPESAGGSAGGSAGG [r17_140_TrMRF]”, the “folding stability dG unfold” value came out at 0.67 ± 0.15 kcal/mol in series [1], 1.16 ± 0.23 kcal/mol in series [2] and 1.34 ± 0.14 kcal/mol in series [3].
The corresponding values for “SAGGSAGGSAGKEKTITVLLEVDGYLVVAEVKLNEDGSLEITSVKVIKLPKPKPSPEALKSAGGSAGGSAGG [r11_843_TrROS_Hall]” are 1.07 ± 0.048 kcal/mol, 0.907 ± 0.21 kcal/mol and 0.516 ± 0.033 kcal/mol.
“SAGGSAGGSAGKETITITLVVTDENGEKYLIRVEAKIDPKTNKITITKIEIIRLDDLKKLSAGGSAGGSAGG [r11_777_TrROS_Hall]”: the figures for the “folding stability dG unfold” value in series [1], in series [2] and in series [3] were 1.12 ± 0.093 kcal/mol, 1.75 ± 0.41 kcal/mol and 1.72 ± 0.058 kcal/mol, respectively.
For “SAGGSAGGSAGKFKIKVFTHPDGYALALIEVPLGDKPVLILTLIKFPEDGNAEAETFIFPSAGGSAGGSAGG [r11_555_TrMRF]” the same measures were 2.06 ± 0.053 kcal/mol, 2.84 ± 0.13 kcal/mol and 3.25 ± 0.077 kcal/mol.
As for “SAGGSAGGSAGKFKLKIKEVHWRENPNGYEQVKVEIKIPGEEKKIWFPPGMSIDQILDQLSAGGSAGGSAGG [r11_1056_TrROS]”, the “folding stability dG unfold” value in series [1] came to 0.415 ± 0.081 kcal/mol; in series [2], 0.732 ± 0.12 kcal/mol; in series [3], 1.13 ± 0.18 kcal/mol.
Consider “SAGGSAGGSAGKIEAFPGKNTVLLKISIPRRDPNSDSIYTLHAVIPATPEQAKKFLELGISAGGSAGGSAGG [r11_389_TrMRF]”, for which the “folding stability dG unfold” value in series [1] is 0.89 ± 0.041 kcal/mol; in series [2], 0.97 ± 0.1 kcal/mol; in series [3] it was 0.899 ± 0.14 kcal/mol.
The corresponding values for “SAGGSAGGSAGKIKVEKDKKTNEYRVTIELFDKNGKPVKKIEITVKKEDLPKIKELLKKLSAGGSAGGSAGG [r11_77_TrROS_Hall]” are 2.96 ± 0.069 kcal/mol, 3.4 ± 0.076 kcal/mol and 3.6 ± 0.1 kcal/mol.
The corresponding values for “SAGGSAGGSAGKIPEIIKKTNAVEKDGKIFLGIKTDGKYYLIELEKKTLKIKKIEPFPDKSAGGSAGGSAGG [r11_808_TrMRF]” are -0.135 ± 0.14 kcal/mol, 0.488 ± 0.085 kcal/mol and 0.776 ± 0.12 kcal/mol.
With “SAGGSAGGSAGKIVIVVDEDGNYTLKVNGKTYVFKTPEEAKAAAEELKKAGIEIEIVEVPSAGGSAGGSAGG [r17_35_TrROS_Hall]”, the “folding stability dG unfold” value in series [1] worked out at 3.6 ± 0.21 kcal/mol; in series [2], 4.85 ± 0.17 kcal/mol; in series [3], 4.96 ± 0.16 kcal/mol.
The corresponding values for “SAGGSAGGSAGKIWIYNPENGWIFEISIQPHPMPNDDGEPQWMFSIDVEVYPPGKPGQPISAGGSAGGSAGG [r11_531_TrROS]” are 2.59 ± 0.079 kcal/mol, 3.59 ± 0.065 kcal/mol and 4.1 ± 0.066 kcal/mol.
For “SAGGSAGGSAGKIYIVKLPNETIEIEFEGTEEEAIDFAIKELEKLFPKPIPKDDIIILGGSAGGSAGGSAGG [r11_1028_TrMRF]” the same measures were 1.76 ± 0.074 kcal/mol, 1.71 ± 0.14 kcal/mol and 1.65 ± 0.043 kcal/mol.
The corresponding values for “SAGGSAGGSAGKKIKLPKELKGKKIEVKEVEIEVEVNGKKYKFKAKIVKFDGKIIAIELESAGGSAGGSAGG [r11_21_TrROS_Hall]” are 1.36 ± 0.069 kcal/mol, 2.98 ± 0.17 kcal/mol and 3.31 ± 0.055 kcal/mol.
For the sequence “SAGGSAGGSAGKKIKVKIEVVYTDEDGNKHKVEMEKEIELKPGDKITLPPEAITRVEILPSAGGSAGGSAGG [r11_664_TrROS_Hall]”, the “folding stability dG unfold” value worked out at 0.832 ± 0.17 kcal/mol in series [1], 1.57 ± 0.19 kcal/mol in series [2] and 1.95 ± 0.12 kcal/mol in series [3].
The corresponding values for “SAGGSAGGSAGKKITIELPEGVKVYKLPNENDYIIVEDEKTKEKYIFKIKDGKVELIEKLSAGGSAGGSAGG [r11_1036_TrROS_Hall]” are 1.01 ± 0.054 kcal/mol, 1.47 ± 0.14 kcal/mol and 1.86 ± 0.15 kcal/mol.
